Each block holds one binder with its values, some of them ahead of it.
How the values were obtained:
[1] = target: T1, human CD33 on U937 cells (endogenous) (human, UniProt P20138 18-364); assay: FACS, U937 cells
T1 construct: whole, on cells
Description: (§1) The desired cells were expanded to a logarithmic growth phase in a T-75 cell culture flask. For adherent cells CHO-K1, the culture medium was removed by pipetting, and the cells were washed twice with a PBS buffer, digested with trypsin, and washed twice with a PBS buffer again after the digestion was stopped. For suspension cells U937, the medium supernatant was discarded by direct centrifugation, and the cell pellet was washed twice with PBS, and then incubated with a buffer containing human Fc Block (purchased from BD, Cat. No. 564220) for 15 min. After the cells obtained in the last step were subjected to cell counting, the cell pellet was resuspended to 2×10⁶ cells/mL with a blocking solution [PBS+2% (w/w) BSA] and added to a 96-well FACS reaction plate at 50 μL/well. The VHH-Fc antibody (a sample to be tested) was added at 50 μL/well, and the plate was incubated on ice for 2 h. […] After the plate was centrifuged and washed 5 times with a PBS buffer, the results were assayed and analyzed by FACS (FACS Canto™, purchased from BD Biosciences), so as to obtain the mean fluorescence intensity (MFI) of cells. Then, analysis was performed by software (GraphPad Prism8), data were fitted, and EC50 values were calculated.

[2] = target: T2, human CD33 on CHO-K1 cells (CHO-K1-human CD33) (human, UniProt P20138 18-364); assay: FACS, CHO-K1-human CD33 cells
T2 construct: whole, on cells; stably transfected CHO-K1 clones; also called CHO-K1-hCD33-B8; CHO-K1-human CD33 B8
T2 sequence (P20138 18-364): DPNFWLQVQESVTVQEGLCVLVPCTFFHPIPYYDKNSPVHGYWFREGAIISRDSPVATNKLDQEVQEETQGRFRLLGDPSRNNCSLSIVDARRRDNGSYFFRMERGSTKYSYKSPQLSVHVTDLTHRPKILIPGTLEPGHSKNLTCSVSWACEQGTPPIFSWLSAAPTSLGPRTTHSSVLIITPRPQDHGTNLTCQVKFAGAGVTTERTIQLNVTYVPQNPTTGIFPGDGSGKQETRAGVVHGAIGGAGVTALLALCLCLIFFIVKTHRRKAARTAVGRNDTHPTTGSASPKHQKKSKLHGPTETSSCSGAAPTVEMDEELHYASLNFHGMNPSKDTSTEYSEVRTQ
Description: as §1

[3] = target: T3, human CD33-C2-his (human, UniProt P20138 136-260); assay: ELISA on coated human CD33-C2-his
T3 construct: expressed in HEK293E; also called hCD33-C2-his; human CD33 protein C2-domain; not shown: His tag
T3 sequence (P20138 other isoform, or with tags, fused parts or gaps limits assumed): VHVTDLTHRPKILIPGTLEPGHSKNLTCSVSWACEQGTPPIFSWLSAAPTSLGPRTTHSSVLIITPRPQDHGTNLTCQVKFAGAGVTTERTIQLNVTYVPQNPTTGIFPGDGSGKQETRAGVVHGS
Description: Plates were coated with human CD33-V-his (membrane distal end) and human CD33-C2-his (membrane proximal end), respectively, according to the ELISA method in Example 8. The VHH humanized antibodies were classified based on the membrane distal end and the membrane proximal end, as shown in FIGS. 20A-20J and Table 44, which allowed the classification of the VHH humanized antibodies into the following classes: […]

[4] = target: T4, human CD33-His (extracellular domain Asp 18-His 259) (human, UniProt P20138 18-259); assay: competitive ELISA vs coated S006-NB146-20 2ug/mL; soluble 25ug/ml
T4 construct: range 18-259; bought protein; also called hCD33-his; human CD33 protein; not shown: His tag
T4 sequence (P20138 18-259 limits assumed): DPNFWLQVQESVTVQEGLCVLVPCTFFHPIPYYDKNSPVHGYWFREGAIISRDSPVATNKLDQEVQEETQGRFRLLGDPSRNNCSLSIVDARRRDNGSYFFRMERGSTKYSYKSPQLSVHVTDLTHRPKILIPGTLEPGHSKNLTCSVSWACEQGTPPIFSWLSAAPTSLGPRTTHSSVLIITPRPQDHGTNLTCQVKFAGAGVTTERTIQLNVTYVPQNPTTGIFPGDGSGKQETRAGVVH
Description: VHH antibodies and control antibodies with known epitopes were subjected to epitope classification with competitive ELISA. ELISA plates were coated with 2 μg/mL antibodies according to the method in Example 5.1; the human CD33-his protein was subjected to a gradient dilution from 30 μg/mL, and EC80 values (Tables 26-27) were calculated. ELISA plates were coated with 2 μg/mL antibodies; after 25 µg/mL of antibodies to be tested were added, a human CD33-his protein having an EC80 concentration corresponding to each of the antibodies to be tested was then added for incubation for 2 h. The plates were washed 5 times with PBS, then HRP-labeled anti-His antibodies (purchased from GenScript, Cat. No. A00612) were added for incubation for 1 h, and the plates were washed 5 times. A TMB substrate was added at 50 μL/well and incubated at room temperature for 10 min, then a stop solution (1.0 M HCl) was added at 50 μL/well. OD_{450 nm} values were read using an ELISA plate reader (Insight, purchased from PerkinElmer), and the competition rate between the antibodies was calculated according to the OD_{450 nm} values using a formula. The results are shown in FIGS. 12A-12B, the higher the value of the competition rate, the closer the epitopes to which two antibodies bind.

[5] = target: T5, human CD33-his protein (human, UniProt P20138 18-259); assay: competition ELISA, coated human CD33-his, vs Biotin-C33B904 at EC80; antibody 3.91 nM
T5 construct: range 18-259; bought protein; also called hCD33-his; recombinant human CD33-his; not shown: His tag
T5 sequence (P20138 18-259 limits assumed): as above
Description: (§2) ELISA plates were coated with 2 μg/mL human CD33-his protein according to the method in Example 5.1; the Biotin-C331B904 antibody was subjected to a gradient dilution from 15 μg/mL, and EC80 values (0.18 μg/mL) were calculated. ELISA plates were coated with 2 μg/mL human CD33-his protein; starting from 40 μg/mL, the VHH antibodies to be tested were diluted in a 1:2 dilution ratio to obtain seven concentrations and added to the ELISA plates, and then Biotin-C331904 antibodies with the EC80 concentrations were added for incubation for 2 h. The plates were washed 5 times with PBS and then […] (purchased from Sigma, Cat. No. S2438) were added for incubation for 1 h, and the plates were washed 5 times. A TMB substrate was added at 50 μL/well and incubated at room temperature for 10 min, then a stop solution (1.0 M HCl) was added at 50 μL/well. OD_{450 nm} values were read using an ELISA plate reader (Insight, purchased from PerkinElmer). Then, analysis was performed by software (GraphPad Prism8), and data were fitted for curve plotting. The results are shown in FIGS. 13A-13B and Tables 28 and 29.

[6] = target: T5, human CD33-his protein; assay: competition ELISA, coated human CD33-his, vs Biotin-C33B904 at EC80; antibody 125.00 nM
Description: as §2

T1 sequence (P20138 18-364): as the sequence (P20138 18-364) above

EC50 [1]: 8.41 nM | Max MFI [1]: 599 MFI | EC50 [2]: 12.5 nM | Max MFI [2]: 15000 MFI | EC50 (read off the curve) [3]: ~0.05 nM | inhibition rate [4]: 100%
B1: C33B904 hIgG1 (antibody, V domains shown)
VH: EVQLVESGGGLVQPGRSLRLSCAASGFTFDDYAMHWVRQAPGKGLEWVSGIGWSGGSIVYADSVKGRFTISRDNAKNSLYLQMNSLRAEDTALYYCAKDSPYGDFFDYWGQGTLVTVSS
VL: DIVMTQSPDSLAVSLGERATINCKSSQTVFYSSNNKNYLAWYQQKPGQPPKLLISWASTRKSGVPDRFSGSGSGTDFTLTVSSLQAEDVAVYYCQHYYSTPYTFGQGTKLEIKR
notes: intact human IgG1; variable regions from US20190382481A1; also called C33B3904; C331B904

OD450 (Biotin-C33B904 signal) [5]: 1.77 | OD450 (Biotin-C33B904 signal) [6]: 0.13
B2: C33B904 (antibody, human IgG1, kappa, V domains shown)
VH: B1 VH
VL: B1 VL
notes: control antibody, intact human IgG1 form; variable regions from US20190382481A1; also called C33B904 hIgG1; C331B904

— patent US20240124575A1 (SIMCERE ZAIMING PHARMACEUTICAL, published 2024)
